In this experiment the target is T1, Human LRRC15 Protein, His Tag (Acro Biosystems) (human, UniProt Q8TF66 22-538, limits assumed).
T1 construct: not shown: His tag
T1 sequence (looked up): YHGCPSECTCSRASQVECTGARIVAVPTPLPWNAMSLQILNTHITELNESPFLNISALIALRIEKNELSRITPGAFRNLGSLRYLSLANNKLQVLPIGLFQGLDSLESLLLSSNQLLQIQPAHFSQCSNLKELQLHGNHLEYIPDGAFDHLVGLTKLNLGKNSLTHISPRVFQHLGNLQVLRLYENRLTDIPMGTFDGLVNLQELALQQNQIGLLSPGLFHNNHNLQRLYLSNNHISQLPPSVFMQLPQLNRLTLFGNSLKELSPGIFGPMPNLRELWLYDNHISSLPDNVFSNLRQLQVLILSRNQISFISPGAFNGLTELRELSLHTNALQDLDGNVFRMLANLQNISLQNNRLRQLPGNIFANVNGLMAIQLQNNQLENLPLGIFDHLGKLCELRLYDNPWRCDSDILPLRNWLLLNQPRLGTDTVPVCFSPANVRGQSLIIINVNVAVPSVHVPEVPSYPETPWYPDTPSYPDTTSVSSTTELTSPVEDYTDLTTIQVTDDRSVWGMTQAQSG
As to the kind of experiment: BLI; dissociation pH 7.4 black, pH 5.4 grey [D00016 FIG. 3B].

B1: MYT7933 (antibody, V domains shown)
VH: QQQLVESGGGLVKPGASLTLTCKASGFSFSGSYWICWVRQAPGKGLEWIGCINGGSLDITYYASWAKGRFTISKASSTTVTLQKTSLTAADTATYFCASDTSYTAYGNFYFNLWGPGTLVTVSS
VL: AQVLTQTASPVSAAVGGTVTINCQSSQSVLHNNWLAWYQQKPGQPPKLLIYDASSLASGVPSRFKGSGSGTQFTLTISDLESDDAATYYCQGEFSCGSADCNAFGGGTEVVVKG
notes: also called 24D9 VL N31H
Consider B1, for which the binding result is given as “binds”.

B2: MYT7946 (antibody, V domains shown)
VH: QQQLVESGGGLVKPGASLTLTCKASGFSFSGSYWICWVRQAPGKGLEWIGCINGGSLDITYYASWAKGRFTISKASSTTVTLQKTSLTAADTATYFCASDTSYTAYGNFYFNLWGPGTLVTVSS
VL: AQVLTQTASPVSAAVGGTVTINCQSSQSVLNNNWLAWYQQKPGQPPKLLIYDASSLASGVPSRFKGSGSGTQFTLTISDLESDDAATYYCHGEFSCGSADCNAFGGGTEVVVKG
notes: tested as culture supernatant; also called 24D9 VL Q91H
As to B2, the binding result is on record as “binds”.

B3: MYT7939 (antibody, V domains shown)
VH: QQQLVESGGGLVKPGASLTLTCKASGFSFSGSYWICWVRQAPGKGLEWIGCINGGSLDITYYASWAKGRFTISKASSTTVTLQKTSLTAADTATYFCASDTSYTAYGNFYFNLWGPGTLVTVSS
VL: AQVLTQTASPVSAAVGGTVTINCQSSQSVLNNNWLAWYQQKPGQPPKLLIYHASSLASGVPSRFKGSGSGTQFTLTISDLESDDAATYYCQGEFSCGSADCNAFGGGTEVVVKG
notes: tested as culture supernatant; also called 24D9 VL D52H
With B3, the binding result is recorded as “no binding (tested: 50 nM LRRC15)”.

B4: MYT7945 (antibody, V domains shown)
VH: QQQLVESGGGLVKPGASLTLTCKASGFSFSGSYWICWVRQAPGKGLEWIGCINGGSLDITYYASWAKGRFTISKASSTTVTLQKTSLTAADTATYFCASDTSYTAYGNFYFNLWGPGTLVTVSS
VL: AQVLTQTASPVSAAVGGTVTINCQSSQSVLNNNWLAWYQQKPGQPPKLLIYDASSLAHGVPSRFKGSGSGTQFTLTISDLESDDAATYYCQGEFSCGSADCNAFGGGTEVVVKG
notes: tested as culture supernatant; also called 24D9 VL S58H
With B4, the binding result is “binds”.

B5: MYT7938 (antibody, V domains shown)
VH: QQQLVESGGGLVKPGASLTLTCKASGFSFSGSYWICWVRQAPGKGLEWIGCINGGSLDITYYASWAKGRFTISKASSTTVTLQKTSLTAADTATYFCASDTSYTAYGNFYFNLWGPGTLVTVSS
VL: AQVLTQTASPVSAAVGGTVTINCQSSQSVLNNNWLHWYQQKPGQPPKLLIYDASSLASGVPSRFKGSGSGTQFTLTISDLESDDAATYYCQGEFSCGSADCNAFGGGTEVVVKG
notes: tested as culture supernatant; also called 24D9 VL A36H
Take B5: the binding result is reported as “no binding (tested: 50 nM LRRC15)”.

B6: MYT7941 (antibody, V domains shown)
VH: QQQLVESGGGLVKPGASLTLTCKASGFSFSGSYWICWVRQAPGKGLEWIGCINGGSLDITYYASWAKGRFTISKASSTTVTLQKTSLTAADTATYFCASDTSYTAYGNFYFNLWGPGTLVTVSS
VL: AQVLTQTASPVSAAVGGTVTINCQSSQSVLNNNWLAWYQQKPGQPPKLLIYDAHSLASGVPSRFKGSGSGTQFTLTISDLESDDAATYYCQGEFSCGSADCNAFGGGTEVVVKG
notes: tested as culture supernatant; also called 24D9 VL S54H
Regarding B6, the binding result is “binds”.

B7: MYT7940 (antibody, V domains shown)
VH: QQQLVESGGGLVKPGASLTLTCKASGFSFSGSYWICWVRQAPGKGLEWIGCINGGSLDITYYASWAKGRFTISKASSTTVTLQKTSLTAADTATYFCASDTSYTAYGNFYFNLWGPGTLVTVSS
VL: AQVLTQTASPVSAAVGGTVTINCQSSQSVLNNNWLAWYQQKPGQPPKLLIYDHSSLASGVPSRFKGSGSGTQFTLTISDLESDDAATYYCQGEFSCGSADCNAFGGGTEVVVKG
notes: tested as culture supernatant; also called 24D9 VL A53H
Consider B7, for which the binding result is “binds”.

B8: MYT7944 (antibody, V domains shown)
VH: QQQLVESGGGLVKPGASLTLTCKASGFSFSGSYWICWVRQAPGKGLEWIGCINGGSLDITYYASWAKGRFTISKASSTTVTLQKTSLTAADTATYFCASDTSYTAYGNFYFNLWGPGTLVTVSS
VL: AQVLTQTASPVSAAVGGTVTINCQSSQSVLNNNWLAWYQQKPGQPPKLLIYDASSLHSGVPSRFKGSGSGTQFTLTISDLESDDAATYYCQGEFSCGSADCNAFGGGTEVVVKG
notes: tested as culture supernatant; also called 24D9 VL A57H
B8: the binding result was “binds”.

B9: MYT7943 (antibody, V domains shown)
VH: QQQLVESGGGLVKPGASLTLTCKASGFSFSGSYWICWVRQAPGKGLEWIGCINGGSLDITYYASWAKGRFTISKASSTTVTLQKTSLTAADTATYFCASDTSYTAYGNFYFNLWGPGTLVTVSS
VL: AQVLTQTASPVSAAVGGTVTINCQSSQSVLNNNWLAWYQQKPGQPPKLLIYDASSHASGVPSRFKGSGSGTQFTLTISDLESDDAATYYCQGEFSCGSADCNAFGGGTEVVVKG
notes: tested as culture supernatant; also called 24D9 VL L56H
As to B9, the binding result is “binds”.

B10: MYT7936 (antibody, V domains shown)
VH: QQQLVESGGGLVKPGASLTLTCKASGFSFSGSYWICWVRQAPGKGLEWIGCINGGSLDITYYASWAKGRFTISKASSTTVTLQKTSLTAADTATYFCASDTSYTAYGNFYFNLWGPGTLVTVSS
VL: AQVLTQTASPVSAAVGGTVTINCQSSQSVLNNNHLAWYQQKPGQPPKLLIYDASSLASGVPSRFKGSGSGTQFTLTISDLESDDAATYYCQGEFSCGSADCNAFGGGTEVVVKG
notes: tested as culture supernatant; also called 24D9 VL W34H
Regarding B10, the binding result was “no binding (tested: 50 nM LRRC15)”.

B11: MYT7934 (antibody, V domains shown)
VH: QQQLVESGGGLVKPGASLTLTCKASGFSFSGSYWICWVRQAPGKGLEWIGCINGGSLDITYYASWAKGRFTISKASSTTVTLQKTSLTAADTATYFCASDTSYTAYGNFYFNLWGPGTLVTVSS
VL: AQVLTQTASPVSAAVGGTVTINCQSSQSVLNHNWLAWYQQKPGQPPKLLIYDASSLASGVPSRFKGSGSGTQFTLTISDLESDDAATYYCQGEFSCGSADCNAFGGGTEVVVKG
notes: tested as culture supernatant; also called 24D9 VL N32H
In the case of B11, the binding result is “binds”.

B12: MYT7942 (antibody, V domains shown)
VH: QQQLVESGGGLVKPGASLTLTCKASGFSFSGSYWICWVRQAPGKGLEWIGCINGGSLDITYYASWAKGRFTISKASSTTVTLQKTSLTAADTATYFCASDTSYTAYGNFYFNLWGPGTLVTVSS
VL: AQVLTQTASPVSAAVGGTVTINCQSSQSVLNNNWLAWYQQKPGQPPKLLIYDASHLASGVPSRFKGSGSGTQFTLTISDLESDDAATYYCQGEFSCGSADCNAFGGGTEVVVKG
notes: tested as culture supernatant; also called 24D9 VL S55H
With B12, the binding result is given as “binds”.

B13: MYT7937 (antibody, V domains shown)
VH: QQQLVESGGGLVKPGASLTLTCKASGFSFSGSYWICWVRQAPGKGLEWIGCINGGSLDITYYASWAKGRFTISKASSTTVTLQKTSLTAADTATYFCASDTSYTAYGNFYFNLWGPGTLVTVSS
VL: AQVLTQTASPVSAAVGGTVTINCQSSQSVLNNNWHAWYQQKPGQPPKLLIYDASSLASGVPSRFKGSGSGTQFTLTISDLESDDAATYYCQGEFSCGSADCNAFGGGTEVVVKG
notes: tested as culture supernatant; also called 24D9 VL L35H
Regarding B13, the binding result is “binds”.

B14: MYT7935 (antibody, V domains shown)
VH: QQQLVESGGGLVKPGASLTLTCKASGFSFSGSYWICWVRQAPGKGLEWIGCINGGSLDITYYASWAKGRFTISKASSTTVTLQKTSLTAADTATYFCASDTSYTAYGNFYFNLWGPGTLVTVSS
VL: AQVLTQTASPVSAAVGGTVTINCQSSQSVLNNHWLAWYQQKPGQPPKLLIYDASSLASGVPSRFKGSGSGTQFTLTISDLESDDAATYYCQGEFSCGSADCNAFGGGTEVVVKG
notes: also called 24D9 VL N33H
For B14, the binding result was “binds”.

Values taken from US20250352661A1 (MYTHIC THERAPEUTICS, published 2025).
